Substitutions are numbered along the chain they refer to. Names and notes keep the numbering of the source.
B1: PE8 (Pelagibacterium halotolerans B2; S118A) (protein)
chain: MTEPVKLSGPMLPAVSGAAKSLVVLLHGYGSDGRDLIALGQFWRDSFPDTMFVAPNAPHVCGGNPFGYEWFPLDLERDRTLARLAGAETAHPVLDAFLADLWAQTGLGPADTILVGFAQGAMMALYTGLRLPEPLKAIIAFSGLIVAPEKLEAEIASKPPVLLIHGDLDDVVPVIGSETALPKLIDLGIDARLHISQGSGHTIAQDGLDTATAFLREIL
notes: 6xHis fusion from pET28b in E. coli Rosetta (DE3), Ni-NTA and SEC; monomer; catalytic triad Ser118, Asp169, His201
B2: PE8 (Pelagibacterium halotolerans B2; L73A) (protein)
chain: B1 chain with L73A, A118S
notes: as for B1
B3: PE8 (Pelagibacterium halotolerans B2; R83A) (protein)
chain: B1 chain with R83A, A118S
notes: as for B1
B4: PE8 (Pelagibacterium halotolerans B2) (protein)
chain: B1 chain with A118S
notes: as for B1
B5: PE8 (Pelagibacterium halotolerans B2; M122A) (protein)
chain: B1 chain with A118S, M122A
notes: as for B1
B6: PE8 (Pelagibacterium halotolerans B2; R79A) (protein)
chain: B1 chain with R79A, A118S
notes: as for B1
B7: PE8 (Pelagibacterium halotolerans B2; V172A) (protein)
chain: B1 chain with A118S, V172A
notes: as for B1
B8: PE8 (Pelagibacterium halotolerans B2; V171A) (protein)
chain: B1 chain with A118S, V171A
notes: as for B1

What follows are proteins tested on CC(=O)Oc1ccc([N+](=O)[O-])cc1 (assay: purified protein). Conditions: 100 mM Tris-HCl pH 7.5, 30 °C, 0.05-4 mM substrate in acetonitrile.
Format: biochemical, Pelagibacterium halotolerans
B1 gave a Km of 540 ± 46 µM, a Vmax of 12 µM/min/mg and a kcat of 5.1 ± 0.14 s⁻¹.
B2 gave a Km of 530 ± 26 µM, a Vmax of 55 µM/min/mg and a kcat of 23 ± 0.27 s⁻¹.
Protein B3 has a Km of 600 ± 23 µM, a Vmax of 97 µM/min/mg and a kcat of 41 ± 0.42 s⁻¹.
Protein B4 has a Km of 660 ± 49 µM, a Vmax of 71 µM/min/mg and a kcat of 30 ± 0.68 s⁻¹.
Protein B5 has a Km of 75 ± 6.9 µM, a Vmax of 96 µM/min/mg and a kcat of 40 ± 0.68 s⁻¹.
In the case of B6, the Km is reported as 600 ± 62 µM, the Vmax is reported as 132 µM/min/mg and the kcat is reported as 55 ± 1.7 s⁻¹.
With B7 the Km was 500 ± 35 µM, the Vmax was 82 µM/min/mg and the kcat was 35 ± 0.63 s⁻¹.
For B8, the Km was 890 ± 70 µM, the Vmax was 36 µM/min/mg and the kcat was 19 ± 0.42 s⁻¹.
